According to PMC3234246:

Experiments:
[1] = target: cyclophilin A (CypA), human (UniProt P62937); test: ITC; recombinant CypA or Nup358Cyp against recombinant CA^NTD, without cyclosporine; done as described in ref. 25
[2] = target: Nup358/RanBP2 cyclophilin domain (Nup358Cyp), human (human); test: as above
[3] = target: cyclophilin A (CypA), human (UniProt P62937); test: ITC

Chain of cyclophilin A (CypA), human (P62937 whole entry, the tested form may be a part): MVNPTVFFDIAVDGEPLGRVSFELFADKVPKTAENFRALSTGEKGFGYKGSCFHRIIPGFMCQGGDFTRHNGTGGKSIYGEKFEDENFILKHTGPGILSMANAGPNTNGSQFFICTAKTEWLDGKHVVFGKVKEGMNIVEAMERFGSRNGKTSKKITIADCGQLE

Row | Substance | Kd [1] | Kd [2] | other: stoichiometry N [3] | other: ΔH [3] | other: ΔS ((cal/mol)/deg) [3] | Kd [3]
1 | HIV-1 NL4.3 capsid N-terminal domain (CA^NTD), wild type (domain or fragment) | 7 µM | 16 µM |  |  |  | 
2 | HIV-1 NL4.3 capsid N-terminal domain (CA^NTD), wild type N74D |  |  | 0.8 | -9.8 kcal/mol | -10.3 | 
3 | HIV-1 NL4.3 capsid N-terminal domain (CA^NTD), wild type P90A |  |  | 0.8 | -2.84 kcal/mol | 9.8 | 46 µM
4 | HIV-1 capsid N-terminal domain (CA^NTD) mutant N57A (domain or fragment) | 7 µM | 55 µM |  |  |  | 
5 | HIV-1 capsid N-terminal domain (CA^NTD) mutant N74D (domain or fragment) |  | 95 µM |  |  |  | 
